The values below come from PMC8571522, “siRNA screening identifies METTL9 as a histidine Nπ-methyltransferase that targets the proinflammatory protein S100A9” (The Journal of Biological Chemistry, 2021).

The target in assay [1] is T1, recombinant S100A9 prepared by cleavage of GST-S100A9, after the reaction with GST-METTL9 in the absence of … (mouse, UniProt P31725 1-113).
T1 construct: S100A9, mouse; also called GST-cleaved S100A9; mS100A9; source: E. coli BL21-CodonPlus (DE3)-RIL, purified (Glutathione Sepharose 4B), GST removed with PreScission Protease; incubated with GST-METTL9 in the absence of SAM
T1 sequence (looked up): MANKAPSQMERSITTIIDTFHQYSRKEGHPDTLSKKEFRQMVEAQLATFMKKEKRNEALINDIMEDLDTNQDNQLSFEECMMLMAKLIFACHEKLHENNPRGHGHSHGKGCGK
In words: pull-down; recombinant GST-cleaved S100A9 after an in vitro methylation reaction with GST-METTL9 in the presence or the absence of SAM, then binding to GST-S100A8 (Fig. S6). To be noted: both partners purified.

Assay [2] has as its target T2, recombinant S100A9 prepared by cleavage of GST-S100A9, methylated in vitro by GST-METTL9 in the presence of … (mouse, UniProt P31725 1-113, Nπ-methylhistidine at His-107).
T2 construct: S100A9, mouse; methylated at His-107 by METTL9; also called de novo methylated S100A9; methylated recombinant S100A9; source: E. coli BL21-CodonPlus (DE3)-RIL, purified (Glutathione Sepharose 4B), GST removed with PreScission Protease; in vitro methylation reaction with GST-METTL9 in the presence of SAM
T2 sequence (looked up): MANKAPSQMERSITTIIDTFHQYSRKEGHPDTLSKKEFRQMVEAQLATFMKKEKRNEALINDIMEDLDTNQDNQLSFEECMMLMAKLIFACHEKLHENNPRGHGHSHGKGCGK
The assay is described as above. To be noted: both partners purified.

B1: GST-fused mouse S100A8 (natural protein, UniProt P27005 1-89, looked up)
chain: MPSELEKALSNLIDVYHNYSNIQGNHHALYKNDFKKMVTTECPQFVQNINIENLFRELDINSDNAINFEEFLAMVIKVGVASHKDSHKE
notes: S100A8, mouse; Held on glutathione beads in the pull-downs; also called GST-S100A8; mS100A8; source: E. coli BL21, purified (Glutathione Sepharose 4B)
In the case of B1, the binding result in assay [1] and in assay [2] was “binds” throughout.
